Data published in publication PMC4405576, “The Crystal Structure and Small-Angle X-Ray Analysis of CsdL/TcdA Reveal a New tRNA Binding Motif in the MoeB/E1 Superfamily” (PLoS ONE, 2015).

Tests used:
[1] = test system: TcdA (CsdL) (Escherichia coli); assay: intrinsic fluorescence quenching; conditions: native tRNA modifications possible, not determined
CsdL/TcdA = target: T1, CsdL/TcdA (Escherichia coli, UniProt Q46927); assay: X-ray crystallography; conditions: crystals in 0.05 M potassium phosphate, 10% PEG1000, basic pH, 20 °C; 1.77 Å; K+ and Na+ bound; nucleotide-binding site crystallisation; 1.89 Å; AMP as obtained directly from the cell (co-purified); n
T1 sequence (Q46927 1-268): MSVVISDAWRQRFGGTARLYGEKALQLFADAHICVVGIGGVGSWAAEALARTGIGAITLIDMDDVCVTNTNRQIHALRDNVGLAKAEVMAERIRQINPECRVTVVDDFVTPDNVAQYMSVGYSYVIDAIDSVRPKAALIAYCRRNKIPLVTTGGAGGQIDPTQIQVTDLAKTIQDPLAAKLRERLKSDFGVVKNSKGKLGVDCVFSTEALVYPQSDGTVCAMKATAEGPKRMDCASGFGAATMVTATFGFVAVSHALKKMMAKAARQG

[2] = target: tRNA threonylcarbamoyladenosine dehydratase A (TcdA) (E. coli) (UniProt Q46927); assay: SAXS; purified TcdA, batch setup, three concentrations between 0.5-5 mg/ml, 5°C, 20 mM sodium/potassium phosphate pH 7.4, 300 mM NaCl, 2 mM β-mercaptoethanol
[3] = target: tRNA threonylcarbamoyladenosine dehydratase A (TcdA) (E. coli) (UniProt Q46927); assay: AUC; sedimentation velocity and sedimentation equilibrium, 20°C, 20 mM HEPES, 100 mM KCl, 50 mM NaCl, pH 7.4; TcdA alone
[4] = target: tRNA threonylcarbamoyladenosine dehydratase A (TcdA) (E. coli) (UniProt Q46927); assay: SEC; analytical gel filtration of TcdA alone; data not shown

tRNALys(UUU), overexpressed in E. coli
Kd [1]: 3000 nM

Nc1ncnc2c1ncn2[C@@H]1O[C@H](COP(=O)(O)O)[C@@H](O)[C@H]1O [AMP]
X-ray crystallography (CsdL/TcdA): the nucleotide-binding residues stabilize AMP in a manner analogous to ATP

tRNA threonylcarbamoyladenosine dehydratase A (TcdA) (from UniProt Q46927 1-268) (enzyme)
stoichiometry N [2]: 2
stoichiometry N [3]: 2
stoichiometry N [4]: 2
